This assay has as its target human VEGF165 (human) (UniProt P15692). Description: population PK model estimate, Michaelis-Menten binding of free aflibercept to VEGF in plasma (in vivo, model-derived).

These results are taken from patent EP4799607A2.

aflibercept, sequence (chain): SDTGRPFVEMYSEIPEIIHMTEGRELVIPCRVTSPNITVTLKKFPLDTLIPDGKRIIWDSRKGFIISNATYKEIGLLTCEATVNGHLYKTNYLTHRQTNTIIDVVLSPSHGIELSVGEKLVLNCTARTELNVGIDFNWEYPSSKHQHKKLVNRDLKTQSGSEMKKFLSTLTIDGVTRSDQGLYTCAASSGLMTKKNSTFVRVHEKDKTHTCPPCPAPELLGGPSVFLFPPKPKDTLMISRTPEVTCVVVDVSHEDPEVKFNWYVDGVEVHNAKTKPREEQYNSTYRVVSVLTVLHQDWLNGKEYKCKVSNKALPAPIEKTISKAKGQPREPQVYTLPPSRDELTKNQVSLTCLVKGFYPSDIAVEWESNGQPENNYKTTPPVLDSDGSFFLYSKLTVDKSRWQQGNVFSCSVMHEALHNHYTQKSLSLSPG
UniProt P15692, sequence (P15692 other isoform, or with tags, fused parts or gaps limits assumed): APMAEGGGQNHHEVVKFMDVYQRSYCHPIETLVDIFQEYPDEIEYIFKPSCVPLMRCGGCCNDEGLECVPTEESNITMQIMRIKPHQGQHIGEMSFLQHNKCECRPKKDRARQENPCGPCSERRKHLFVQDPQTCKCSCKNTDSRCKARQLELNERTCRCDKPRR

Take aflibercept (Fc fusion): the KM (concentration of free aflibercept at half of maximum binding capacity with VEGF) was 0.411 mg/L and the VMK24 (maximum binding rate of free aflibercept to VEGF) was 0.167 mg/day/L.
